Assay results published in PMC9958480, “Structural insights into the recognition of telomeric variant repeat TTGGGG by broad-complex, tramtrack and bric-à-brac - zinc finger protein ZBTB10”.

Target: T1, ZBTB10 ZF1-2 R767Q (human, UniProt Q96DT7 713-779, R767Q)
T1 sequence: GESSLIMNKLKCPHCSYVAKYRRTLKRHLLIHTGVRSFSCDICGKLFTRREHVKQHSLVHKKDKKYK
Test: X-ray crystallography; Zn2+; 1.9 A, P1; ITC at 20 C, ~30 uM dsDNA in cell, ~300 uM protein in syringe; proteins dialyzed in 20 mM Tris-HCl pH 7.5, 150 mM NaCl (ITC buffer not separately stated)
Settings: protein: recombinant; tags: MBP removed by PreScission; 5' overhang 1 nt on each strand (T and A)

B1: TTAGGG crystal duplex (dsDNA)
DNA 1: TTAGGGTTATA
DNA 2: ATATAACCCTA
  binding result: binds
